Measured values from the supplement of paper PMC10567573.

B1: TRIM9 (parent)
chain: PRNSCITCPQCHRSLILDDRGLRG

Variants of: B1
Assay: protein stability index of a GFP-peptide fusion (GPS, HEK-293T) (PSI 1-6); higher = more stable
Conditions: c terminus: a fixed tail appended
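Further: lentivirally expressed fusions sorted by FACS into six bins by GFP to DsRed ratio, PSI derived from sequencing read proportions per bin multiplied by bin number.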

In order of falling protein stability index:
1. ERNSCITCPQCHRSLILDDRGLRG  3.1
2. PYNSCITCPQCHRSLILDDRGLRG  3.02
3. PRNSCITCPQGHRSLILDDRGLRG  3.01
4. PRNSCITCPQIHRSLILDDRGLRG  2.98
5. PPNSCITCPQCHRSLILDDRGLRG  2.92
6. PRNSCITCPQDHRSLILDDRGLRG  2.92
7. PRNMCITCPQCHRSLILDDRGLRG  2.89
8. PRNSCITCPQEHRSLILDDRGLRG  2.86
9. PRNSCYTCPQCHRSLILDDRGLRG  2.72
10. PENSCITCPQCHRSLILDDRGLRG  2.71
11. PRNSCITCPQKHRSLILDDRGLRG  2.62
12. CRNSCITCPQCHRSLILDDRGLRG  2.61
13. SRNSCITCPQCHRSLILDDRGLRG  2.61
14. PRNSCPTCPQCHRSLILDDRGLRG  2.6
15. PTNSCITCPQCHRSLILDDRGLRG  2.56
16. PRHSCITCPQCHRSLILDDRGLRG  2.53
17. PQNSCITCPQCHRSLILDDRGLRG  2.52
18. PRLSCITCPQCHRSLILDDRGLRG  2.52
19. PRNICITCPQCHRSLILDDRGLRG  2.52
20. PRNSCITCPQHHRSLILDDRGLRG  2.51
21. PRSSCITCPQCHRSLILDDRGLRG  2.5
22. KRNSCITCPQCHRSLILDDRGLRG  2.48
23. HRNSCITCPQCHRSLILDDRGLRG  2.47
24. PRNSCITCPQPHRSLILDDRGLRG  2.47
25. PRNSCHTCPQCHRSLILDDRGLRG  2.46
26. VRNSCITCPQCHRSLILDDRGLRG  2.46
27. PNNSCITCPQCHRSLILDDRGLRG  2.44
28. DRNSCITCPQCHRSLILDDRGLRG  2.4
29. PRNSCITCPQFHRSLILDDRGLRG  2.38
30. PRNLCITCPQCHRSLILDDRGLRG  2.37
31. PRASCITCPQCHRSLILDDRGLRG  2.36
32. PDNSCITCPQCHRSLILDDRGLRG  2.34
33. PRDSCITCPQCHRSLILDDRGLRG  2.34
34. IRNSCITCPQCHRSLILDDRGLRG  2.33
35. PRNFCITCPQCHRSLILDDRGLRG  2.31
36. PHNSCITCPQCHRSLILDDRGLRG  2.29
37. PRNSCNTCPQCHRSLILDDRGLRG  2.29
38. LRNSCITCPQCHRSLILDDRGLRG  2.29
39. PRNSCITCPQAHRSLILDDRGLRG  2.29
40. PRNDCITCPQCHRSLILDDRGLRG  2.29
41. RRNSCITCPQCHRSLILDDRGLRG  2.28
42. PRNVCITCPQCHRSLILDDRGLRG  2.27
43. PRNSCCTCPQCHRSLILDDRGLRG  2.26
44. PRNSCLTCPQCHRSLILDDRGLRG  2.26
45. PRNECITCPQCHRSLILDDRGLRG  2.2
46. PKNSCITCPQCHRSLILDDRGLRG  2.19
47. PRNYCITCPQCHRSLILDDRGLRG  2.17
48. PMNSCITCPQCHRSLILDDRGLRG  2.16
49. PRNSCQTCPQCHRSLILDDRGLRG  2.16
50. NRNSCITCPQCHRSLILDDRGLRG  2.16
51. PRESCITCPQCHRSLILDDRGLRG  2.16
52. PRNSCDTCPQCHRSLILDDRGLRG  2.15
53. PRNHCITCPQCHRSLILDDRGLRG  2.14
54. PRNPCITCPQCHRSLILDDRGLRG  2.1
55. PRNSCMTCPQCHRSLILDDRGLRG  2.08
56. YRNSCITCPQCHRSLILDDRGLRG  2.04
57. PRRSCITCPQCHRSLILDDRGLRG  2.03
58. PRNSCETCPQCHRSLILDDRGLRG  2.02
59. PRNSCSTCPQCHRSLILDDRGLRG  2.02
60. PRNACITCPQCHRSLILDDRGLRG  2
61. TRNSCITCPQCHRSLILDDRGLRG  1.97
62. PRNSCITCPQMHRSLILDDRGLRG  1.97
63. PRFSCITCPQCHRSLILDDRGLRG  1.96
64. PSNSCITCPQCHRSLILDDRGLRG  1.94
65. WRNSCITCPQCHRSLILDDRGLRG  1.94
66. PRKSCITCPQCHRSLILDDRGLRG  1.94
67. PRNSCGTCPQCHRSLILDDRGLRG  1.93
68. PVNSCITCPQCHRSLILDDRGLRG  1.92
69. PRISCITCPQCHRSLILDDRGLRG  1.92
70. PFNSCITCPQCHRSLILDDRGLRG  1.89
71. PRNSCTTCPQCHRSLILDDRGLRG  1.89
72. PRYSCITCPQCHRSLILDDRGLRG  1.85
73. PRNQCITCPQCHRSLILDDRGLRG  1.85
74. QRNSCITCPQCHRSLILDDRGLRG  1.83
75. PRNSCITCPQLHRSLILDDRGLRG  1.83
76. PRVSCITCPQCHRSLILDDRGLRG  1.83
77. ARNSCITCPQCHRSLILDDRGLRG  1.82
78. PRCSCITCPQCHRSLILDDRGLRG  1.8
79. PRNNCITCPQCHRSLILDDRGLRG  1.8
80. PRTSCITCPQCHRSLILDDRGLRG  1.78
81. MRNSCITCPQCHRSLILDDRGLRG  1.76
82. PRNGCITCPQCHRSLILDDRGLRG  1.76
83. PCNSCITCPQCHRSLILDDRGLRG  1.74
84. PRNTCITCPQCHRSLILDDRGLRG  1.73
85. GRNSCITCPQCHRSLILDDRGLRG  1.71
86. PRNWCITCPQCHRSLILDDRGLRG  1.71
87. PRNSCFTCPQCHRSLILDDRGLRG  1.66
88. PRNKCITCPQCHRSLILDDRGLRG  1.65
89. PRWSCITCPQCHRSLILDDRGLRG  1.62
90. PRMSCITCPQCHRSLILDDRGLRG  1.6
91. PANSCITCPQCHRSLILDDRGLRG  1.58
92. PRGSCITCPQCHRSLILDDRGLRG  1.52
93. PRPSCITCPQCHRSLILDDRGLRG  1.49
94. PRNSCATCPQCHRSLILDDRGLRG  1.48
